Laboratory results taken from paper PMC6490927.

What was measured:
[1] = target: C30-His6 (short form of SafA made by internal translation of the safA mRNA) (Bacillus subtilis); assay: SEC; purified C30-His6 applied to a size exclusion column at 3.5 mg/ml; eluted as a main single sharp peak; mass by elution position
[2] = target: C30-His6 (short form of SafA made by internal translation of the safA mRNA) (Bacillus subtilis); assay: SDS-PAGE of the purified protein (species resistant to denaturation); purified C30 without Tgl or at time 0 of the cross-linking assays; 37°C, Tris-HCl 0.1 M, pH 8.0; 10% SDS-PAGE, Coomassie
[3] = target: C30-His6 (short form of SafA made by internal translation of the safA mRNA) (Bacillus subtilis); assay: SEC-SAXS; SEC peak fractions of C30; synchrotron SEC-SAXS at BM29 ESRF with in-line HPLC; in the absence of Tgl

stoichiometry N [1]: 6 | stoichiometry N [2]: 2 | stoichiometry N [3]: 6
Substance: C30-His6 (short form of SafA made by internal translation of the safA mRNA) (natural protein)
